From patent US11891634B2, “PDE5A destabilizing domains” (The Board of Trustees of the Leland Stanford Junior …, priority 2017, dated 2024)

Experiments:
Type in all cases: cell-based, human
[1] = test system: HCT 116 cells transduced with the PDE5A DD derived GFP constructs; test: Response to Vardenafil, GFP expression by FACS in HCT116; conditions: for MFI / Stabilization ratio with Vardenafil: 48 hours, HCT116
Method: (§1) Mutations were created in PDE5A (535-860) catalytic domain using site directed mutagenesis and the mutants were cloned as AcGFP fusion into pELNS vector carrying mCherry marker and packaged in lentiviral vectors. HCT116 cells were transduced with the constructs and stable integrants were selected by cell sorting using mCherry marker. Cells were treated with vehicle (dimethyl sulfoxide, DMSO) or 10 μM Vardenafil (VDF) for 48 hours. Following the treatment, cells were analyzed for GFP expression using FACS. Basal expression was calculated as the ratio of GFP signal in the absence of ligand for a given cell line to auto fluorescence of parental HCT-116 cells. Stabilization ratio was calculated as the ratio of the GFP signal observed in the presence of stabilizing ligand to the signal from the same cell line in the absence of ligand.
HCT 116 cells transduced with the PDE5A DD derived GFP constructs were also tested with increasing doses of Vardenafil. The HCT116 cells were incubated for 48 hours with Vardenafil starting at a dose of 0.002 μM to 30 μM. The GFP intensity of the Vardenafil treated samples was compared to the parental untransduced HCT116 and DMSO treated cells for each construct. The mean fluorescence intensity was calculated for each sample and used to calculate the stabilization ratios as well as the basal expression for each construct. The GFP expression was measured using flow cytometry and the mean fluorescence intensity (MFI) was calculated for each sample. The stabilization ratios are shown in Table 13 and Table 14 and the basal expression is show in Table 15.

[2] = test system: HCT 116 cells transduced with the PDE5A DD derived GFP constructs; test: Response to Tadalafil, GFP expression by FACS in HCT116; conditions: for MFI / Stabilization ratio with Tadalafil: 48 hours, HCT116
Method: as §1, with “PDE5AN (#3) was” for “Mutations were created in PDE5A (535-860) catalytic domain using site directed mutagenesis and the mutants were”, “construct” for “constructs”, “varying doses of Tadalafil (TDF)” for “10 μM Vardenafil (VDF)”, “hrs with doses ranging from 0.01 μM to 100 μM.” for “hours.”
HCT 116 cells transduced with the PDE5A DD derived GFP constructs were also tested with increasing doses of Tadalafil. The HCT116 cells were incubated for 48 hours with Tadalafil starting at dose 0.01 μM to 100 μM. The GFP intensity of the Tadalafil treated samples was compared to the parental untransduced HCT116 and DMSO treated cells for each construct. The mean fluorescence intensity was calculated for each sample and used to calculate the stabilization ratios as well as the basal expression for each construct. The stabilization ratios are shown in Table 19 and Table 20 and the basal expression is show in Table 21.

[3] = test system: HCT116 cells transduced with the constructs; test: Response to Sildenafil, GFP expression by flow cytometry in HCT116; conditions: for MFI / Stabilization ratio with Sildenafil: 48 hours, HCT116
Method: Similar experiments were performed in HCT116 cells using sildenafil. The above-mentioned DDs were cloned as AcGFP fusion into pELNS vector carrying mCherry marker and packaged in lentiviral vectors. HCT116 cells were transduced with the constructs and stable integrants were selected by cell sorting using mCherry marker. Cells were treated with sildenafil at the following μM concentrations: 0.01, 0.02, 0.05, 0.14, 0.41, 1.23, 3.7, 11.11, 33.33, and 100 for a duration of 48 hours. The fluorescence was analyzed by flow cytometry and the mean fluorescence intensity was calculated for all samples. […] The stabilization ratios are shown in Table 24 and Table 25 and the basal expression is show in Table 26.

B1: PDE5AC (#42): AcGFP fused to C-terminal DD 535-860 of PDE5A (E535D, K555R, F564S, Q589R, K630R, C677R, N742S, I799T, M816A), SEQ ID NO. 28 (protein)
chain: DETRELQSLAAAVVPSAQTLRITDFSFSDSELSDLETALCTIRMFTDLNLVQNFRMKHEVLCRWILSVKKNYRKNVAYHNWRHAFNTAQCMFAALRAGKIQNKLTDLEILALLIAALSHDLDHRGVNNSYIQRSEHPLAQLYRHSIMEHHHFDQCLMILNSPGNQILSGLSIEEYKTTLKIIKQAILATDLALYIKRRGEFFELIRKSQFNLEDPHQKELFLAMLMTACDLSAITKPWPIQQRIAELVATEFFDQGDRERKELNTEPTDLMNREKKNKIPSAQVGFIDAICLQLYEALTHVSEDCFPLLDGCRKNRQKWQALAEQQ
modifications: /note=“Description of Artificial Sequence Synthetic Destabilizing Domain (DD)”
In the case of B1, the MFI ([1]; DMSO (no Vardenafil)) is reported as 25111, the “Basal (DMSO/Parental)” value ([1]; Table 10, GFP signal without ligand / auto fluorescence of parental HCT-116) is reported as 20.0 and the Basal ([1]; Table 15, MFI with DMSO / parental HCT116, Vardenafil experiment) is reported as 12.85. The “Stabilization ratio with Vardenafil” value ([1]; Vardenafil 0.002 μM vs DMSO) was 1.0, the MFI ([1]; Vardenafil 0.002 μM) was 25236 and the MFI ([1]; Vardenafil 0.005 μM) was 28309. For the same molecule, the “Stabilization ratio with Vardenafil” value ([1]; Vardenafil 0.014 μM vs DMSO) was 1.4, the MFI ([1]; Vardenafil 0.014 μM) was 33958 and the “Stabilization ratio with Vardenafil” value ([1]; Vardenafil 0.041 μM vs DMSO) was 1.9. For the same molecule, the MFI ([1]; Vardenafil 0.041 μM) was 46882, the “Stabilization ratio with Vardenafil” value ([1]; Vardenafil 0.123 μM vs DMSO) was 3.2 and the MFI ([1]; Vardenafil 0.123 μM) was 81233. For the same molecule, the “Stabilization ratio with Vardenafil” value ([1]; Vardenafil 0.370 μM vs DMSO) was 4.6, the MFI ([1]; Vardenafil 0.370 μM) was 114847 and the “Stabilization ratio with Vardenafil” value ([1]; Vardenafil 1.111 μM vs DMSO) was 5.4. For the same molecule, the MFI ([1]; Vardenafil 1.111 μM) was 136303, the “Stabilization ratio with Vardenafil” value ([1]; Vardenafil 3.333 μM vs DMSO) was 5.9 and the MFI ([1]; Vardenafil 3.333 μM) was 147512. The “Stabilization ratio with Vardenafil” value ([1]; Vardenafil 10 μM vs DMSO) was 6.4, the MFI ([1]; Vardenafil 10 μM) was 161587 and the “Stabilization ratio with Vardenafil” value ([1]; Vardenafil 30 μM vs DMSO) was 8.0. The MFI ([1]; Vardenafil 30 μM) was 199877, the MFI ([2]; DMSO (no Tadalafil)) was 22601 and the “Basal expression” value ([2]; Table 21, MFI with DMSO / parental HCT116, Tadalafil experiment) was 17.66. The “Stabilization ratio with Tadalafil” value ([2]; Tadalafil 0.01 μM vs DMSO) was 1.0, the MFI ([2]; Tadalafil 0.01 μM) was 22787 and the “Stabilization ratio with Tadalafil” value ([2]; Tadalafil 0.02 μM vs DMSO) was 1.0. The MFI ([2]; Tadalafil 0.02 μM) was 23274, the “Stabilization ratio with Tadalafil” value ([2]; Tadalafil 0.05 μM vs DMSO) was 1.0 and the MFI ([2]; Tadalafil 0.05 μM) was 23278. The “Stabilization ratio with Tadalafil” value ([2]; Tadalafil 0.14 μM vs DMSO) was 1.1, the MFI ([2]; Tadalafil 0.14 μM) was 24532 and the “Stabilization ratio with Tadalafil” value ([2]; Tadalafil 0.41 μM vs DMSO) was 1.2. For the same molecule, the MFI ([2]; Tadalafil 0.41 μM) was 26765, the “Stabilization ratio with Tadalafil” value ([2]; Tadalafil 1.23 μM vs DMSO) was 1.6 and the MFI ([2]; Tadalafil 1.23 μM) was 35325. For the same molecule, the “Stabilization ratio with Tadalafil” value ([2]; Tadalafil 3.7 μM vs DMSO) was 2.6, the MFI ([2]; Tadalafil 3.7 μM) was 59821 and the “Stabilization ratio with Tadalafil” value ([2]; Tadalafil 11.11 μM vs DMSO) was 4.1. For the same molecule, the MFI ([2]; Tadalafil 11.11 μM) was 92400, the “Stabilization ratio with Tadalafil” value ([2]; Tadalafil 33.33 μM vs DMSO) was 5.4 and the MFI ([2]; Tadalafil 33.33 μM) was 122658. The “Stabilization ratio with Tadalafil” value ([2]; Tadalafil 100 μM vs DMSO) was 6.2, the MFI ([2]; Tadalafil 100 μM) was 139002 and the MFI ([3]; DMSO (no Sildenafil)) was 23943. For the same molecule, the “Stabilization ratio with Sildenafil” value ([3]; Sildenafil 0.01 μM vs DMSO) was 1.0, the MFI ([3]; Sildenafil 0.01 μM) was 23295 and the “Stabilization ratio with Sildenafil” value ([3]; Sildenafil 0.02 μM vs DMSO) was 1.0. The MFI ([3]; Sildenafil 0.02 μM) was 23606, the “Stabilization ratio with Sildenafil” value ([3]; Sildenafil 0.05 μM vs DMSO) was 1.0 and the MFI ([3]; Sildenafil 0.05 μM) was 24817. The “Stabilization ratio with Sildenafil” value ([3]; Sildenafil 0.14 μM vs DMSO) was 1.2, the MFI ([3]; Sildenafil 0.14 μM) was 29495 and the “Stabilization ratio with Sildenafil” value ([3]; Sildenafil 0.41 μM vs DMSO) was 1.7. For the same molecule, the MFI ([3]; Sildenafil 0.41 μM) was 40817, the “Stabilization ratio with Sildenafil” value ([3]; Sildenafil 1.23 μM vs DMSO) was 2.6 and the MFI ([3]; Sildenafil 1.23 μM) was 63410. For the same molecule, the “Stabilization ratio with Sildenafil” value ([3]; Sildenafil 3.70 μM vs DMSO) was 3.8, the MFI ([3]; Sildenafil 3.70 μM) was 91798 and the “Stabilization ratio with Sildenafil” value ([3]; Sildenafil 11.11 μM vs DMSO) was 5.3. For the same molecule, the MFI ([3]; Sildenafil 11.11 μM) was 127187, the “Stabilization ratio with Sildenafil” value ([3]; Sildenafil 33.33 μM vs DMSO) was 6.3 and the MFI ([3]; Sildenafil 33.33 μM) was 149906. For the same molecule, the “Stabilization ratio with Sildenafil” value ([3]; Sildenafil 100.00 μM vs DMSO) was 6.9, the MFI ([3]; Sildenafil 100.00 μM) was 164269 and the Basal expression ([3]; Table 26, MFI with DMSO / parental HCT116, Sildenafil experiment) was 18.6.
